Data published in US20180155451A1 (published 2018).

What was measured:
[1] = target: T1, FcγRIa extracellular domain with C-terminal His tag (human, UniProt P12314 16-292); assay: SPR (Biacore), antibody captured on antigen-peptide chip, FcγR as analyte; relative binding
T1 construct: extracellular domain; Expressed in FreeStyle293 cells; analyte in the Biacore assay; also called FcgRI; 1a; not shown: His tag at the C terminus

[2] = target: T2, FcγRIIb extracellular domain with C-terminal His tag (human, UniProt P31994 43-217); assay: as above
T2 construct: extracellular domain; Expressed in FreeStyle293 cells; analyte in the Biacore assay; also called FcgRIIb; 2b; not shown: His tag at the C terminus
T2 sequence (looked up): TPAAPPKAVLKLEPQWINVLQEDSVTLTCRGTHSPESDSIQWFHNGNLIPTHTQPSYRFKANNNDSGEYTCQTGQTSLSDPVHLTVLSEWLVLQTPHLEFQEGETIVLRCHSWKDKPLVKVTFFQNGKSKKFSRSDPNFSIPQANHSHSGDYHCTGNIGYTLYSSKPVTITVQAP

[3] = target: T3, FcγRIIa R (FcγRIIa, allotype R: Arg at position 131) extracellular domain with C-terminal His tag (human, UniProt P12318 34-217); assay: ratio He/Con_2aR : He/Con_2b (FcgRIIa R over FcgRIIb), SPR Biacore
T3 construct: extracellular domain; also called FcgRIIa R; 2aR; not shown: His tag at the C terminus
T3 sequence (looked up): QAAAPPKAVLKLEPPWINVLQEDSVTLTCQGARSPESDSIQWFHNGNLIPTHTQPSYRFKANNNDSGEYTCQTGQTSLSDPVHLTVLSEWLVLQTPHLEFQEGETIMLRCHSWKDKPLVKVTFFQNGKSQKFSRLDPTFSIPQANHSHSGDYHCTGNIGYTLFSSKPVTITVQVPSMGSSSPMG
Procedure: (§1) The heterodimerized antibodies He Abs in which one of the H chains was introduced with an alteration were assayed for their binding activities to each activating FcγR and inhibitory FcγR according to the method described in Example 4. […] The activating FcγRs in FIGS. 26, 27, 28, and 29 are FcγRIa, FcγRIIa (R), FcγRIIa (H), and FcγRIIIa, respectively.
(§2) Analysis of interaction between objective antibody and the FcγR was carried out using Biacore T100 (GE Healthcare). HBS-EP+ (GE Healthcare) was used as the running buffer, and the measurement temperature was set to 25° C. Chips produced by immobilizing the antigen peptide by the amine coupling method to a Series S Sencor Chip CM5 (GE Healthcare), or alternatively, chips produced by allowing preliminarily biotinylated antigen peptides to interact with and immobilize onto a Series S Sensor Chip SA (certified) (GE Healthcare) were used. Antibodies of interest were captured onto an antigen peptide-immobilized chip, and allowed to interact to each FcγR diluted with running buffer. To regenerate and repeatedly use the chip, the antibodies captured on the chip were washed off by reacting 10 mM glycine-HCl, pH 1.5.

[4] = target: T3, FcγRIIa R (FcγRIIa, allotype R: Arg at …); assay: SPR Biacore, antibody captured, FcgR analyte; vs HeCon Ab GpH7-A5/GpH7-B3/GpL16-k0 = 100
Procedure: as §1, §2

[5] = target: T4, FcγRIIb extracellular domain with C-terminal His tag (human, UniProt P31994 43-217); assay: as above
T4 construct: extracellular domain; also called FcgRIIb; 2b; not shown: His tag at the C terminus
T4 sequence (looked up): T2 sequence (looked up)
Procedure: as §1, §2

[6] = target: T5, FcγRIa extracellular domain with C-terminal His tag (human, UniProt P12314 16-292); assay: SPR Biacore, relative binding amount
T5 construct: extracellular domain; Soluble receptor expressed in FreeStyle293 cells and used as analyte in Biacore; also called FcgRI; 1a; not shown: His tag at the C terminus

[7] = target: T6, FcγRIIb extracellular domain with C-terminal His tag (human, UniProt P31994 43-217); assay: SPR Biacore, relative binding amount
T6 construct: extracellular domain; Soluble receptor expressed in FreeStyle293 cells and used as analyte in Biacore; also called FcgRIIb; 2b; not shown: His tag at the C terminus
T6 sequence (looked up): T2 sequence (looked up)

B1: GpH7-A5/GpH7-B3 variant Y300_09D/GpL16-k0 (He Ab) (antibody, human IgG1, kappa)
heavy 1: not shown
heavy 2: not shown
light: DIVMTQSPLSLPVTPGEPASISCQASESLVHSNRNTYLHWYLQKPGQSPQLLIYKVSNRFSGVPDRFSGSGSGTDFTLKISRVEAEDVGVYYCSQNTHVPPTFGQGTKVEIERTVAAPSVFIFPPSDEQLKSGTASVVCLLNNFYPREAKVQWKVDNALQSGNSQESVTEQDSKDSTYSLSSTLTLSKADYEKHKVYACEVTHQGLSSPVTKSFNRGEC
notes: Heterodimerized anti-glypican-3 IgG1; the mutation stands in the GpH7-B3 chain only
He/Con_1a [1]: 112 % of GpH7-A5/GpH7-B3/GpL16-k0 (=100)
He/Con_2b [2]: 93.2 % of GpH7-A5/GpH7-B3/GpL16-k0 (=100)

B2: GpH7-A5/GpH7-B3 variant G236_02A/GpL16-k0 (antibody, human IgG1, kappa)
heavy 1: not shown
heavy 2: not shown
light: B1 light
notes: He Ab: alteration in the GpH7-B3 H chain only; also called He Ab
He_2aR/2b (IIaR/IIb) [3]: 1.51
He/Con_2aR [4]: 146 control = 100
He/Con_2b [5]: 96.5 control = 100

B3: heterodimerized antibody GpH7-A5/GpH7-B3 variant E333_16H/GpL16-k0 (antibody, human IgG1, kappa)
heavy 1: not shown
heavy 2: not shown
light: B1 light
notes: Substitution in only one H chain (GpH7-B3 side); also called He Ab
He/Con_1a [6]: 101 % of GpH7-A5/GpH7-B3/GpL16-k0 (=100)
He/Con_2b [7]: 83.3 % of GpH7-A5/GpH7-B3/GpL16-k0 (=100)

B4: GpH7-A5/GpH7-B3 variant Y300_12R/GpL16-k0 (He Ab) (antibody, human IgG1, kappa)
heavy 1: not shown
heavy 2: not shown
light: B1 light
notes: as for B1
He/Con_1a [1]: 105 % of GpH7-A5/GpH7-B3/GpL16-k0 (=100)
He/Con_2b [2]: 41.2 % of GpH7-A5/GpH7-B3/GpL16-k0 (=100)

B5: GpH7-A5/GpH7-B3 variant L235_12R/GpL16-k0 (antibody, human IgG1, kappa)
heavy 1: not shown
heavy 2: not shown
light: B1 light
notes: as for B2
He_2aR/2b (IIaR/IIb) [3]: 1.69
He/Con_2aR [4]: 16.2 control = 100

B6: heterodimerized antibody GpH7-A5/GpH7-B3 variant T335_05P/GpL16-k0 (antibody, human IgG1, kappa)
heavy 1: not shown
heavy 2: not shown
light: B1 light
notes: as for B3
He/Con_1a [6]: 106 % of GpH7-A5/GpH7-B3/GpL16-k0 (=100)
He/Con_2b [7]: 99.9 % of GpH7-A5/GpH7-B3/GpL16-k0 (=100)

B7: heterodimerized antibody GpH7-A5/GpH7-B3 variant I336_02A/GpL16-k0 (antibody, human IgG1, kappa)
heavy 1: not shown
heavy 2: not shown
light: B1 light
notes: as for B3
He/Con_1a [6]: 106 % of GpH7-A5/GpH7-B3/GpL16-k0 (=100)
He/Con_2b [7]: 84.9 % of GpH7-A5/GpH7-B3/GpL16-k0 (=100)

B8: GpH7-A5/GpH7-B3 variant Y300_16H/GpL16-k0 (He Ab) (antibody, human IgG1, kappa)
heavy 1: not shown
heavy 2: not shown
light: B1 light
notes: as for B1
He/Con_1a [1]: 111 % of GpH7-A5/GpH7-B3/GpL16-k0 (=100)
He/Con_2b [2]: 87 % of GpH7-A5/GpH7-B3/GpL16-k0 (=100)

B9: heterodimerized antibody GpH7-A5/GpH7-B3 variant I336_01G/GpL16-k0 (antibody, human IgG1, kappa)
heavy 1: not shown
heavy 2: not shown
light: B1 light
notes: as for B3
He/Con_1a [6]: 109 % of GpH7-A5/GpH7-B3/GpL16-k0 (=100)
He/Con_2b [7]: 90.1 % of GpH7-A5/GpH7-B3/GpL16-k0 (=100)

B10: GpH7-A5/GpH7-B3 variant Y300_14T/GpL16-k0 (He Ab) (antibody, human IgG1, kappa)
heavy 1: not shown
heavy 2: not shown
light: B1 light
notes: as for B1
He/Con_1a [1]: 112 % of GpH7-A5/GpH7-B3/GpL16-k0 (=100)
He/Con_2b [2]: 55.6 % of GpH7-A5/GpH7-B3/GpL16-k0 (=100)

B11: heterodimerized antibody GpH7-A5/GpH7-B3 variant E333_11K/GpL16-k0 (antibody, human IgG1, kappa)
heavy 1: not shown
heavy 2: not shown
light: B1 light
notes: as for B3
He/Con_1a [6]: 102 % of GpH7-A5/GpH7-B3/GpL16-k0 (=100)
He/Con_2b [7]: 80.6 % of GpH7-A5/GpH7-B3/GpL16-k0 (=100)

B12: GpH7-A5/GpH7-B3 variant G236_08L/GpL16-k0 (antibody, human IgG1, kappa)
heavy 1: not shown
heavy 2: not shown
light: B1 light
notes: as for B2
He_2aR/2b (IIaR/IIb) [3]: 2.45
He/Con_2aR [4]: 65.8 control = 100
He/Con_2b [5]: 26.8 control = 100

B13: heterodimerized antibody GpH7-A5/GpH7-B3 variant T335_01G/GpL16-k0 (antibody, human IgG1, kappa)
heavy 1: not shown
heavy 2: not shown
light: B1 light
notes: as for B3
He/Con_1a [6]: 104 % of GpH7-A5/GpH7-B3/GpL16-k0 (=100)
He/Con_2b [7]: 96.7 % of GpH7-A5/GpH7-B3/GpL16-k0 (=100)

B14: GpH7-A5/GpH7-B3 variant G236_07I/GpL16-k0 (antibody, human IgG1, kappa)
heavy 1: not shown
heavy 2: not shown
light: B1 light
notes: as for B2
He_2aR/2b (IIaR/IIb) [3]: 2.81
He/Con_2aR [4]: 87.1 control = 100
He/Con_2b [5]: 31 control = 100

B15: heterodimerized antibody GpH7-A5/GpH7-B3 variant E333_13S/GpL16-k0 (antibody, human IgG1, kappa)
heavy 1: not shown
heavy 2: not shown
light: B1 light
notes: as for B3
He/Con_1a [6]: 103 % of GpH7-A5/GpH7-B3/GpL16-k0 (=100)
He/Con_2b [7]: 81.8 % of GpH7-A5/GpH7-B3/GpL16-k0 (=100)

B16: GpH7-A5/GpH7-B3 variant G236_03V/GpL16-k0 (antibody, human IgG1, kappa)
heavy 1: not shown
heavy 2: not shown
light: B1 light
notes: as for B2
He_2aR/2b (IIaR/IIb) [3]: 2.6
He/Con_2aR [4]: 91.6 control = 100
He/Con_2b [5]: 35.3 control = 100

B17: heterodimerized antibody GpH7-A5/GpH7-B3 variant T335_02A/GpL16-k0 (antibody, human IgG1, kappa)
heavy 1: not shown
heavy 2: not shown
light: B1 light
notes: as for B3
He/Con_1a [6]: 103 % of GpH7-A5/GpH7-B3/GpL16-k0 (=100)
He/Con_2b [7]: 94 % of GpH7-A5/GpH7-B3/GpL16-k0 (=100)

B18: GpH7-A5/GpH7-B3 variant G236_04F/GpL16-k0 (antibody, human IgG1, kappa)
heavy 1: not shown
heavy 2: not shown
light: B1 light
notes: as for B2
He_2aR/2b (IIaR/IIb) [3]: 1.35
He/Con_2aR [4]: 53.1 control = 100
He/Con_2b [5]: 39.3 control = 100
